# Assay results as given in article PMC11640050.
# Biological target: Rictor (R28 cells)
# Assay: co-IP (Rictor IP) with DSP crosslinker, western blot band quantification
# Settings: TNF+HG treatment
row,ratio to parent,Substance
1,0.26,3X-FLAG-tagged wild-type HSPB4 (αA-crystallin) (from UniProt P02489) R49A
2,0.11,3X-FLAG-tagged wild-type HSPB4 (αA-crystallin) (from UniProt P02489) T148D
3,0.75,3X-FLAG-tagged wild-type HSPB4 (αA-crystallin) (from UniProt P02489) T148A
4,0.35,3X-FLAG-tagged wild-type HSPB4 (αA-crystallin) (from UniProt P02489) R21A
